In the supplement of paper PMC9233669:
Variants at the floor of the assay were thinned out.

Assays:
[1] = test system: biotinyl-Phe-oxazolone; experiment: self-aminoacylation, catalytic enhancement (BFO) (fold over background); higher = more active; k-Seq, kA / k0A0; sequences stand for … in GGGAAUGGAUCCACAUCUACGAAUUC…UUCACUGCAGACUUGACGAAGCUG
Outline: (§1)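 Mutagenized RNA pools with a 21-nt variable region (0.43 μM) were reacted with each biotinyl-aminoacyl-oxazolone at 2–1250 μM for 90 minutes at room temperature, in 50 μL HEPES/NaCl/KCl/MgCl2/CaCl2 buffer containing 5% acetonitrile at pH 6.9–7.0. RNA captured on streptavidin was quantified by triplicate qPCR and by Illumina sequencing. The fraction reacted for each sequence was fit to a pseudo-first-order model with bootstrapping, and catalytic enhancement is the median kA divided by the uncatalyzed rate, taken as the low-activity peak of a bimodal Gaussian fit.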

[2] = test system: biotinyl-Ile-oxazolone; experiment: self-aminoacylation, catalytic enhancement (BIO) (fold over background); higher = more active; k-Seq, kA / k0A0; sequences stand for … in GGGAAUGGAUCCACAUCUACGAAUUC…UUCACUGCAGACUUGACGAAGCUG
Outline: as §1

[3] = test system: biotinyl-Met-oxazolone; experiment: self-aminoacylation, catalytic enhancement (BMO) (fold over background); higher = more active; k-Seq, kA / k0A0; sequences stand for … in GGGAAUGGAUCCACAUCUACGAAUUC…UUCACUGCAGACUUGACGAAGCUG
Outline: as §1

[4] = test system: biotinyl-Val-oxazolone; experiment: self-aminoacylation, catalytic enhancement (BVO) (fold over background); higher = more active; k-Seq, kA / k0A0; sequences stand for … in GGGAAUGGAUCCACAUCUACGAAUUC…UUCACUGCAGACUUGACGAAGCUG
Outline: as §1

[5] = test system: biotinyl-Leu-oxazolone; experiment: self-aminoacylation, catalytic enhancement (BLO) (fold over background); higher = more active; k-Seq, kA / k0A0; sequences stand for … in GGGAAUGGAUCCACAUCUACGAAUUC…UUCACUGCAGACUUGACGAAGCUG
Outline: as §1

[6] = test system: biotinyl-Trp-oxazolone; experiment: self-aminoacylation, catalytic enhancement (BWO) (fold over background); higher = more active; k-Seq, kA / k0A0; sequences stand for … in GGGAAUGGAUCCACAUCUACGAAUUC…UUCACUGCAGACUUGACGAAGCUG
Outline: as §1

“AUUACCCUGGUCUUCGCGUGA [Fam2.1 aminoacylation ribozyme variant]” gave a self-aminoacylation [1] of 55.2, a self-aminoacylation [2] of 5.89 and a self-aminoacylation [3] of 9.58. It also gave a self-aminoacylation [4] of 6.16, a self-aminoacylation [5] of 9.77 and a self-aminoacylation [6] of 11.5.

With “AAGUUUGCUAAUCGGCGCAAG [Fam3.1 aminoacylation ribozyme variant]” the self-aminoacylation [1] was 2.32, the self-aminoacylation [2] was 0.842 and the self-aminoacylation [3] was 1.03. It also gave a self-aminoacylation [4] of 1.14, a self-aminoacylation [5] of 1.05 and a self-aminoacylation [6] of 0.944.

“CUACUUCAAACAAUCGGACUA [Fam1A.1 aminoacylation ribozyme variant]” showed a self-aminoacylation [1] of 1.13, a self-aminoacylation [2] of 0.831 and a self-aminoacylation [3] of 0.579. The self-aminoacylation [4] was 0.744, the self-aminoacylation [5] was 0.617 and the self-aminoacylation [6] was 0.655.

“AUCACCCUGGGCAUCGAGUGA [Fam2.1 aminoacylation ribozyme variant]” was tested, and the self-aminoacylation [1] was 69.7, the self-aminoacylation [2] was 4.64 and the self-aminoacylation [3] was 10.6. The self-aminoacylation [4] was 5.3, the self-aminoacylation [5] was 13.1 and the self-aminoacylation [6] was 11.2.

With “AUUACCCUGGUAAUCUAGUGA [Fam2.1 aminoacylation ribozyme variant]” the self-aminoacylation [1] was 86.4, the self-aminoacylation [2] was 5.57 and the self-aminoacylation [3] was 13. The self-aminoacylation [4] was 5.92, the self-aminoacylation [5] was 12.4 and the self-aminoacylation [6] was 15.9.

In the case of “AAGUAUGCUAAUAGUCGAAAG [Fam3.1 aminoacylation ribozyme variant]”, the self-aminoacylation [1] is reported as 15.7, the self-aminoacylation [2] is reported as 1.48 and the self-aminoacylation [3] is reported as 1.7. The self-aminoacylation [4] was 1.21, the self-aminoacylation [5] was 1.31 and the self-aminoacylation [6] was 4.62.

“AAGUUUGCAAAUAGCCGCAAG [Fam3.1 aminoacylation ribozyme variant]” gave a self-aminoacylation [1] of 0.662, a self-aminoacylation [2] of 1.05 and a self-aminoacylation [3] of 0.737. For the same sequence, the self-aminoacylation [4] was 1.06, the self-aminoacylation [5] was 0.933 and the self-aminoacylation [6] was 1.07.

Sequence “AUUCACCUAGGUCAUUGAGUG [Fam2.2 aminoacylation ribozyme variant]” has a self-aminoacylation [1] of 12.3, a self-aminoacylation [2] of 2.6 and a self-aminoacylation [3] of 3.53. It also gave a self-aminoacylation [4] of 2.3, a self-aminoacylation [5] of 4.17 and a self-aminoacylation [6] of 3.89.

“CCACAGUUCAAGCAAUCGGUA [Fam1B.1 aminoacylation ribozyme variant]” gave a self-aminoacylation [1] of 0.787, a self-aminoacylation [2] of 1.08 and a self-aminoacylation [3] of 1.28. It also gave a self-aminoacylation [4] of 1.13, a self-aminoacylation [5] of 1.01 and a self-aminoacylation [6] of 0.707.

Work on “CUACUUAAAACAAUCCGUCUG [Fam1A.1 aminoacylation ribozyme variant]” yielded a self-aminoacylation [1] of 0.461, a self-aminoacylation [2] of 0.799 and a self-aminoacylation [3] of 0.876. It also gave a self-aminoacylation [4] of 0.905, a self-aminoacylation [5] of 0.756 and a self-aminoacylation [6] of 0.547.

“AUUACCCUGGUCGUAGAGUGA [Fam2.1 aminoacylation ribozyme variant]” gave a self-aminoacylation [1] of 3.08, a self-aminoacylation [2] of 1.17 and a self-aminoacylation [3] of 1.28. The self-aminoacylation [4] was 1.09, the self-aminoacylation [5] was 1.84 and the self-aminoacylation [6] was 2.26.

“AUUCACUUAGGUCCUCGGGUG [Fam2.2 aminoacylation ribozyme variant]” gave a self-aminoacylation [1] of 35.8, a self-aminoacylation [2] of 3.12 and a self-aminoacylation [3] of 4.58. For the same sequence, the self-aminoacylation [4] was 2.96, the self-aminoacylation [5] was 6.52 and the self-aminoacylation [6] was 4.66.

For “CCACACUUCAAUCAACCGGUC [Fam1B.1 aminoacylation ribozyme variant]”, the self-aminoacylation [1] was 0.923, the self-aminoacylation [2] was 0.862 and the self-aminoacylation [3] was 0.665. For the same sequence, the self-aminoacylation [4] was 1.02, the self-aminoacylation [5] was 1.06 and the self-aminoacylation [6] was 1.22.

“CCACUCUUCAAGCAAGCGGUC [Fam1B.1 aminoacylation ribozyme variant]” gave a self-aminoacylation [1] of 0.629, a self-aminoacylation [2] of 0.909 and a self-aminoacylation [3] of 0.806. For the same sequence, the self-aminoacylation [4] was 0.97, the self-aminoacylation [5] was 1.09 and the self-aminoacylation [6] was 0.585.

In the case of “AUUACCCUGCUCAGCGAGUGA [Fam2.1 aminoacylation ribozyme variant]”, the self-aminoacylation [1] is reported as 18.5, the self-aminoacylation [2] is reported as 2.24 and the self-aminoacylation [3] is reported as 3.61. It also gave a self-aminoacylation [4] of 2.76, a self-aminoacylation [5] of 3.79 and a self-aminoacylation [6] of 4.77.

“AAGUUUGCUAAUAGUAGCGAG [Fam3.1 aminoacylation ribozyme variant]” was tested, and the self-aminoacylation [1] was 1.65, the self-aminoacylation [2] was 1.21 and the self-aminoacylation [3] was 0.995. For the same sequence, the self-aminoacylation [4] was 1, the self-aminoacylation [5] was 0.962 and the self-aminoacylation [6] was 1.14.

“CCACACUUCAUGGAAUCGGUC [Fam1B.1 aminoacylation ribozyme variant]” showed a self-aminoacylation [1] of 0.928, a self-aminoacylation [2] of 0.858 and a self-aminoacylation [3] of 0.836. The self-aminoacylation [4] was 1.1, the self-aminoacylation [5] was 0.946 and the self-aminoacylation [6] was 0.598.

“CUACUUCAAACAAUCGGUAUG [Fam1A.1 aminoacylation ribozyme variant]” was tested, and the self-aminoacylation [1] was 21.5, the self-aminoacylation [2] was 0.788 and the self-aminoacylation [3] was 0.789. The self-aminoacylation [4] was 0.799, the self-aminoacylation [5] was 0.995 and the self-aminoacylation [6] was 10.1.

“AUUAACCCGGUCAUCGAGUGA [Fam2.1 aminoacylation ribozyme variant]” was tested, and the self-aminoacylation [1] was 54.5, the self-aminoacylation [2] was 3.71 and the self-aminoacylation [3] was 7.21. It also gave a self-aminoacylation [4] of 4.15, a self-aminoacylation [5] of 7.87 and a self-aminoacylation [6] of 9.1.

For “CUACUGCAAACAAUCGGUCUU [Fam1A.1 aminoacylation ribozyme variant]”, the self-aminoacylation [1] was 1.06, the self-aminoacylation [2] was 0.974 and the self-aminoacylation [3] was 0.963. For the same sequence, the self-aminoacylation [4] was 0.836, the self-aminoacylation [5] was 0.953 and the self-aminoacylation [6] was 0.857.

Sequence “CUCCUCCAAACAAUCGGUCUG [Fam1A.1 aminoacylation ribozyme variant]” has a self-aminoacylation [1] of 2.28, a self-aminoacylation [2] of 1.06 and a self-aminoacylation [3] of 0.973. For the same sequence, the self-aminoacylation [4] was 0.846, the self-aminoacylation [5] was 0.846 and the self-aminoacylation [6] was 2.85.

With “AGUACCCUGGUGAUCGAGUGA [Fam2.1 aminoacylation ribozyme variant]” the self-aminoacylation [1] was 30.2, the self-aminoacylation [2] was 2.76 and the self-aminoacylation [3] was 5.62. For the same sequence, the self-aminoacylation [4] was 2.92, the self-aminoacylation [5] was 5.58 and the self-aminoacylation [6] was 5.32.

For “AUUACCAUGGUCACCGAGUGA [Fam2.1 aminoacylation ribozyme variant]”, the self-aminoacylation [1] was 49.9, the self-aminoacylation [2] was 3.34 and the self-aminoacylation [3] was 8.17. For the same sequence, the self-aminoacylation [4] was 3.41, the self-aminoacylation [5] was 9.1 and the self-aminoacylation [6] was 8.6.

“GUUCACCUAGGUCAUUGGGUG [Fam2.2 aminoacylation ribozyme variant]” was tested, and the self-aminoacylation [1] was 8.92, the self-aminoacylation [2] was 2.6 and the self-aminoacylation [3] was 2.21. For the same sequence, the self-aminoacylation [4] was 2.27, the self-aminoacylation [5] was 2.83 and the self-aminoacylation [6] was 3.8.

“AUUCACCUAGGUCAUCGGGCU [Fam2.2 aminoacylation ribozyme variant]” showed a self-aminoacylation [1] of 37.6, a self-aminoacylation [2] of 5.03 and a self-aminoacylation [3] of 8.6. The self-aminoacylation [4] was 4.55, the self-aminoacylation [5] was 12.4 and the self-aminoacylation [6] was 6.09.

“AUUCACCCAUGUCAUCGGGUG [Fam2.2 aminoacylation ribozyme variant]” was tested, and the self-aminoacylation [1] was 46.4, the self-aminoacylation [2] was 3.72 and the self-aminoacylation [3] was 6.58. The self-aminoacylation [4] was 3.15, the self-aminoacylation [5] was 7.33 and the self-aminoacylation [6] was 5.22.
